Measured values: patent publication US20240052052A1 (published 2024)
Substitutions are numbered along the chain they refer to.

T1: Human CD24-mFc (human, UniProt P25063 27-59)
T1 chain: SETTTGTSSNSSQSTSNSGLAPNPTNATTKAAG

T2: human CD24 (human, UniProt P25063 27-59, heavily glycosylated, GPI-anchored (as described in the background))
T2 chain: T1 chain

B1: 101H9G9A2 (antibody, V domains shown)
VH: QVQLLQPGAELVRPGSSVKLSCKASDYTFTSYWMDWVKQRPGQGLEWIGNIYPSDSKTHYNQKFKDKATLTVDKSSSTAYMQLNSLTSEDSAVYYCARRGGYYAYAMDYWGQGTSVTVSS
VL: DIVMTQSPSSLSVSAGEKVTMRCKSSQSLLNSGNQDNYLAWYQQKPGQPPKLLLYGARIRESGVPDRFIGSGSGTDFTLTISSVQAEDLAVYYCQNDHSYPYTFGGGTKVEIK
B2: 33E7E12 (antibody, V domains shown)
VH: EVKLEESGGGLVQPGGSMKLSCFVSGFTFSNSWMNWVRQSPEKGLEWVAQIQLKSDNYATRYVESVRGRFIISRDDSKSSVSLQMNNLRTEDTGIYYCSSGTDYWGQGTTLTVSS
VL: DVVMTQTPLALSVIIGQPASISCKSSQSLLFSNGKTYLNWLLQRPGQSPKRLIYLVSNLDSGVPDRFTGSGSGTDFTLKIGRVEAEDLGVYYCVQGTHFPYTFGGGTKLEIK
B3: 110D4G4 (antibody, V domains shown)
VH: EVQLQQSGPGLVKPGASVKISCRASGYLFTGYYMNWVKQSPEKSLEWIGEINPNTGDPRYDQKFKAKATLTVDRSSSTAYMHLKSLTSEDSAVYFCARRDYGTSLDYWGQGTTLTVTS
VL: DVQITQSPSYLAASPGETITINCRASKSISKYLAWYQEKPGKTNKLLIYSGSTLQSGIPSRFSGSGSGSDFTLTISSLEPEDFAMYYCQQHNEYPLTFGAGTKLELK
B4: 107D10D11 (antibody, V domains shown)
VH: QIQLKQSGPGLVQPSQSLSITCTVSGFSLSSYGVNWVRQSPGKGLEWLGMIWSGGNTDYNAAFISRVSFTKDNSKSQVFFTMNSLQADDTAIYYCARIWYYGMDYWGQGTSVTVSS
VL: DIVMTQSQKFMSTTVGDRVSITCKASQNVGTAVAWFQQKPGQSPKILIYSASIRYPGVPDRFTGSGSGTDFTLTTSNVQSEDLADYFCLQYITFPRTFGGGTKLYIK
B5: 81A1F8 (antibody, V domains shown)
VH: EVQLQQSGPELVKPGASVKISCKATGYLFTGYYMNWVKQSPEKSLEWIGEINPNTGDTNNNQKFKAKATMTVDRSSSTAYMQLKRLTSEDSAVYYCVRRDYGTSLDYWGQGTTLTVSS
VL: B3 VL with S30N, Y49H, G66R, S69T, S77N, L96I
B6: ch81A1F8-hIgG4 (antibody, V domains shown)
VH: B5 VH
VL: B3 VL with S30N, Y49H, G66R, S69T, S77N, L96I
B7: 81A1F8-VH-11/VL-11 (antibody, V domains shown)
VH: QVQLVQSGAEVKKPGASVKVSCKASGYLFTGYYMNWVRQAPGQGLEWMGEINPNTGDTNNNQKFKARVTMTVDRSISTAYMELSRLRSDDTAVYYCVRRDYGTSLDYWGQGTLVTVSS
VL: DVQITQSPSSLSASVGDRVTITCRASKSINKYLAWYQQKPGKAPKLLIHSGSTLQSGVPSRFSGSRSGTDFTLTISSLQPEDFATYYCQQHNEYPITFGQGTKLEIK
B8: 81A1F8-VH-21/VL-11 (antibody, V domains shown)
VH: B7 VH with I76T, R85S, D89E
VL: B7 VL
B9: 81A1F8-VH-31/VL-11 (antibody, V domains shown)
VH: B7 VH with G44R, M70I, I76A, R85S, D89E
VL: B7 VL
B10: 81A1F8-VH-21/VL-41 (antibody, V domains shown)
VH: B7 VH with I76T, R85S, D89E
VL: B7 VL with S10T, D70E, E81D
B11: 81A1F8-VH-31/VL-31 (antibody, V domains shown)
VH: B7 VH with G44R, M70I, I76A, R85S, D89E
VL: B7 VL with A43V
B12: 81A1F8-VH-21/VL-21 (antibody, V domains shown)
VH: B7 VH with I76T, R85S, D89E
VL: B7 VL with S10F, D70E
B13: 81A1F8-VH-21/VL-31 (antibody, V domains shown)
VH: B7 VH with I76T, R85S, D89E
VL: B7 VL with A43V
B14: 81A1F8-VH-11/VL-21 (antibody, V domains shown)
VH: B7 VH
VL: B7 VL with S10F, D70E
B15: 81A1F8-VH-31/VL-41 (antibody, V domains shown)
VH: B7 VH with G44R, M70I, I76A, R85S, D89E
VL: B7 VL with S10T, D70E, E81D
B16: 81A1F8-VH-11/VL-41 (antibody, V domains shown)
VH: B7 VH
VL: B7 VL with S10T, D70E, E81D
B17: 81A1F8-hIgG1 (antibody, V domains shown)
VH: B5 VH
VL: B3 VL with S30N, Y49H, G66R, S69T, S77N, L96I
B18: 101H9G9A2-hIgG (antibody, V domains shown)
VH: B1 VH
VL: B1 VL
B19: 107D10D11-hIgG (antibody, V domains shown)
VH: B4 VH
VL: B4 VL
B20: ch110D4G4-hIgG4 (antibody, V domains shown)
VH: B3 VH
VL: B3 VL
B21: 58F10-1F6 (antibody, V domains shown)
VH: EVQLRQSGPELVKPGAAVKISCKASGYSFTGYHMNWVKQSPEKSLEWIGEINPITSGITYNQIFKAKATLTVDKSSSTAYLQLKSLTSEDSAVYYCTRRDYGTSLDYWGQGTTLTVSS
VL: DIQMTQITSSLSASLGDRVTITCRASQDISNYLNWYQQKPDGTVKLLIYYTSRLLSGVPSRFSGSGSGTDYSLTISNLEQEDIATYFCQQDHTLPRTFGGGTKLEIR
B22: 73H5-1G2 (antibody, V domains shown)
VH: QVQLKQSGPGLVQPSQSLSITCTVSGFSLTNYGVHWIRQSPGKGLEWLGVIWRGGSTDYNAAFMSRLSITKDNSKSQVFFQMNSLQAADTAIYYCANNYGYDCFAYWGQGTLVTVSA
VL: B3 VL with S30I, S69T, S76T, K103R
B23: 56A7E3 (antibody, V domains shown)
VH: EVQLQQSGPELVKPGASVKIPCKASGYTFTAYNMDWVKQSHGMSLEWIGDINPINGGTIYNQNFEGKATLTVDKSSSTAYLELRSLTSEDTAVYYCARRGSYYYGSSHYALDFWGQGTSVSVSS
VL: B21 VL
B24: 71A4F12 (antibody, V domains shown)
VH: B23 VH with I54N, G57D, I59V, E65K, L81M
VL: B21 VL with D17N, T22S, S30R, H92N, T93S, K103R
B25: 100F2E3 (antibody, V domains shown)
VH: B1 VH with L5Q, A24T, Y60S, K65R, A104G
VL: B1 VL with R22S, L54I, R58S, I69T, V110L

Target: T1, Human CD24-mFc
Assay: SPR (BIAcore)

Binder	Kd
B1	1.24 nM
B2	3.08 nM
B3	0.124 nM
B4	0.762 nM
B5	0.095 nM

Target: T1, Human CD24-mFc
Assay: BLI (Gatorprime)

Binder	Kd
B6	0.241 nM
B7	0.0204 nM
B8	0.0158 nM
B9	0.247 nM
B10	0.525 nM
B11	1.11 nM
B12	0.0819 nM
B13	0.712 nM
B14	0.139 nM
B15	21600 nM
B16	0.619 nM

Target: T1, Human CD24-mFc
Assay: SPR (BIAcore); hIgG1

Binder	Kd
B17	2.29 nM

Target: T1, Human CD24-mFc
Assay: SPR (BIAcore); hIgG4

Binder	Kd
B6	2.23 nM

Target: T2, human CD24
Assay: FACS binding; MCF7 cells

Binder	EC50
B18	2.2 nM
B6	4.09 nM
B19	2.19 nM

Target: T2, human CD24
Assay: FACS binding; Huh7 cells

Binder	EC50
B18	0.815 nM
B19	1.39 nM
B20	1.72 nM

Target: T2, human CD24
Assay: FACS binding; Nalm6 cells

Binder	EC50
B1	2.55 nM
B2	21.5 nM
B21	70.6 nM
B3	24.6 nM
B22	108 nM
B23	29.2 nM
B5	11.4 nM
B24	24.9 nM
B25	7.84 nM

Target: T2, human CD24
Assay: FACS binding; DoHH2 cells

Binder	EC50
B1	0.218 nM
B2	5.08 nM
B3	0.61 nM
B5	0.819 nM
